Target: T1, extracellular domain (ECD) of human CD47 (19aa-139aa) with C-terminal 6xHis tag (human, UniProt Q08722 19-139)
T1 construct: also called recombinant CD47; recombinant human CD47
Assay: ELISA, recombinant human CD47; EC50 as grade, legend the 11th table, row 38

T1 sequence (Q08722 other isoform, or with tags, fused parts or gaps limits assumed): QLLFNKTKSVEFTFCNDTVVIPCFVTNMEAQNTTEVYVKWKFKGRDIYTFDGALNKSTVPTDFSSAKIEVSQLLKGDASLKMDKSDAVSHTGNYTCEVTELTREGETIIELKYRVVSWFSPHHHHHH

Binder	EC50 [pM]
hu.18B9.3i (antibody, V domains shown, Humanised 18B9, parent of the alanine scan; also called hu.18B9.3i antibody) VH: EVQLVESGGGLVQPGGSLRLSCAASGFSFNSGYMSWVRQAPGKGLEWIASIYAGSSGKTYYADWAKGRFTISKTSSKTTVYLQMNSLRAEDTAVYYCARDSGGTYYTDYLYLWGQGTLVTVSS VL: DIQMTQSPSSLSASVGDRVTITCRASEGISSYLSWYQQKPGKAPKLLIYKASTLTSGVPSRFSGSGSGTDFTLTISSLQPEDFATYYCQSTYGSSGSSGYGAAFGGGTKVEIK	10 to 500
hu.18B9.3i HC_L100e_A (antibody, V domains shown, Alanine scan variant of hu.18B9.3i; Kabat numbering) VH: EVQLVESGGGLVQPGGSLRLSCAASGFSFNSGYMSWVRQAPGKGLEWIASIYAGSSGKTYYADWAKGRFTISKTSSKTTVYLQMNSLRAEDTAVYYCARDSGGTYYTDYAYLWGQGTLVTVSS VL: DIQMTQSPSSLSASVGDRVTITCRASEGISSYLSWYQQKPGKAPKLLIYKASTLTSGVPSRFSGSGSGTDFTLTISSLQPEDFATYYCQSTYGSSGSSGYGAAFGGGTKVEIK	> 5000
hu.18B9.3i HC_L102A (antibody, name in Kabat numbering, V domains shown, Alanine scan variant of hu.18B9.3i; Kabat numbering) VH: EVQLVESGGGLVQPGGSLRLSCAASGFSFNSGYMSWVRQAPGKGLEWIASIYAGSSGKTYYADWAKGRFTISKTSSKTTVYLQMNSLRAEDTAVYYCARDSGGTYYTDYLYAWGQGTLVTVSS VL: DIQMTQSPSSLSASVGDRVTITCRASEGISSYLSWYQQKPGKAPKLLIYKASTLTSGVPSRFSGSGSGTDFTLTISSLQPEDFATYYCQSTYGSSGSSGYGAAFGGGTKVEIK	10 to 500
hu.18B9.3i HC_S96A (antibody, name in Kabat numbering, V domains shown, Alanine scan variant of hu.18B9.3i; Kabat numbering) VH: EVQLVESGGGLVQPGGSLRLSCAASGFSFNSGYMSWVRQAPGKGLEWIASIYAGSSGKTYYADWAKGRFTISKTSSKTTVYLQMNSLRAEDTAVYYCARDAGGTYYTDYLYLWGQGTLVTVSS VL: DIQMTQSPSSLSASVGDRVTITCRASEGISSYLSWYQQKPGKAPKLLIYKASTLTSGVPSRFSGSGSGTDFTLTISSLQPEDFATYYCQSTYGSSGSSGYGAAFGGGTKVEIK	500 to 5000
hu.18B9.3i HC_T99A (antibody, name in Kabat numbering, V domains shown, Alanine scan variant of hu.18B9.3i; Kabat numbering) VH: EVQLVESGGGLVQPGGSLRLSCAASGFSFNSGYMSWVRQAPGKGLEWIASIYAGSSGKTYYADWAKGRFTISKTSSKTTVYLQMNSLRAEDTAVYYCARDSGGAYYTDYLYLWGQGTLVTVSS VL: DIQMTQSPSSLSASVGDRVTITCRASEGISSYLSWYQQKPGKAPKLLIYKASTLTSGVPSRFSGSGSGTDFTLTISSLQPEDFATYYCQSTYGSSGSSGYGAAFGGGTKVEIK	10 to 500
hu.18B9.3i HC_T100b_A (antibody, V domains shown, Alanine scan variant of hu.18B9.3i; Kabat numbering) VH: EVQLVESGGGLVQPGGSLRLSCAASGFSFNSGYMSWVRQAPGKGLEWIASIYAGSSGKTYYADWAKGRFTISKTSSKTTVYLQMNSLRAEDTAVYYCARDSGGTYYADYLYLWGQGTLVTVSS VL: DIQMTQSPSSLSASVGDRVTITCRASEGISSYLSWYQQKPGKAPKLLIYKASTLTSGVPSRFSGSGSGTDFTLTISSLQPEDFATYYCQSTYGSSGSSGYGAAFGGGTKVEIK	10 to 500
hu.18B9.3i HC_Y100A (antibody, name in Kabat numbering, V domains shown, Alanine scan variant of hu.18B9.3i; Kabat numbering) VH: EVQLVESGGGLVQPGGSLRLSCAASGFSFNSGYMSWVRQAPGKGLEWIASIYAGSSGKTYYADWAKGRFTISKTSSKTTVYLQMNSLRAEDTAVYYCARDSGGTAYTDYLYLWGQGTLVTVSS VL: DIQMTQSPSSLSASVGDRVTITCRASEGISSYLSWYQQKPGKAPKLLIYKASTLTSGVPSRFSGSGSGTDFTLTISSLQPEDFATYYCQSTYGSSGSSGYGAAFGGGTKVEIK	10 to 500
hu.18B9.3i HC_Y100a_A (antibody, V domains shown, Alanine scan variant of hu.18B9.3i; Kabat numbering) VH: EVQLVESGGGLVQPGGSLRLSCAASGFSFNSGYMSWVRQAPGKGLEWIASIYAGSSGKTYYADWAKGRFTISKTSSKTTVYLQMNSLRAEDTAVYYCARDSGGTYATDYLYLWGQGTLVTVSS VL: DIQMTQSPSSLSASVGDRVTITCRASEGISSYLSWYQQKPGKAPKLLIYKASTLTSGVPSRFSGSGSGTDFTLTISSLQPEDFATYYCQSTYGSSGSSGYGAAFGGGTKVEIK	10 to 500
hu.18B9.3i LC_G93A (antibody, name in Kabat numbering, V domains shown, Alanine scan variant of hu.18B9.3i; Kabat numbering) VH: EVQLVESGGGLVQPGGSLRLSCAASGFSFNSGYMSWVRQAPGKGLEWIASIYAGSSGKTYYADWAKGRFTISKTSSKTTVYLQMNSLRAEDTAVYYCARDSGGTYYTDYLYLWGQGTLVTVSS VL: DIQMTQSPSSLSASVGDRVTITCRASEGISSYLSWYQQKPGKAPKLLIYKASTLTSGVPSRFSGSGSGTDFTLTISSLQPEDFATYYCQSTYASSGSSGYGAAFGGGTKVEIK	10 to 500
hu.18B9.3i LC_G95a_A (antibody, V domains shown, Alanine scan variant of hu.18B9.3i; Kabat numbering) VH: EVQLVESGGGLVQPGGSLRLSCAASGFSFNSGYMSWVRQAPGKGLEWIASIYAGSSGKTYYADWAKGRFTISKTSSKTTVYLQMNSLRAEDTAVYYCARDSGGTYYTDYLYLWGQGTLVTVSS VL: DIQMTQSPSSLSASVGDRVTITCRASEGISSYLSWYQQKPGKAPKLLIYKASTLTSGVPSRFSGSGSGTDFTLTISSLQPEDFATYYCQSTYGSSASSGYGAAFGGGTKVEIK	10 to 500
hu.18B9.3i LC_G95d_A (antibody, V domains shown, Alanine scan variant of hu.18B9.3i; Kabat numbering) VH: EVQLVESGGGLVQPGGSLRLSCAASGFSFNSGYMSWVRQAPGKGLEWIASIYAGSSGKTYYADWAKGRFTISKTSSKTTVYLQMNSLRAEDTAVYYCARDSGGTYYTDYLYLWGQGTLVTVSS VL: DIQMTQSPSSLSASVGDRVTITCRASEGISSYLSWYQQKPGKAPKLLIYKASTLTSGVPSRFSGSGSGTDFTLTISSLQPEDFATYYCQSTYGSSGSSAYGAAFGGGTKVEIK	10 to 500
hu.18B9.3i LC_G95f_A (antibody, V domains shown, Alanine scan variant of hu.18B9.3i; Kabat numbering) VH: EVQLVESGGGLVQPGGSLRLSCAASGFSFNSGYMSWVRQAPGKGLEWIASIYAGSSGKTYYADWAKGRFTISKTSSKTTVYLQMNSLRAEDTAVYYCARDSGGTYYTDYLYLWGQGTLVTVSS VL: DIQMTQSPSSLSASVGDRVTITCRASEGISSYLSWYQQKPGKAPKLLIYKASTLTSGVPSRFSGSGSGTDFTLTISSLQPEDFATYYCQSTYGSSGSSGYAAAFGGGTKVEIK	10 to 500
hu.18B9.3i LC_Q89A (antibody, name in Kabat numbering, V domains shown, Alanine scan variant of hu.18B9.3i; Kabat numbering) VH: EVQLVESGGGLVQPGGSLRLSCAASGFSFNSGYMSWVRQAPGKGLEWIASIYAGSSGKTYYADWAKGRFTISKTSSKTTVYLQMNSLRAEDTAVYYCARDSGGTYYTDYLYLWGQGTLVTVSS VL: DIQMTQSPSSLSASVGDRVTITCRASEGISSYLSWYQQKPGKAPKLLIYKASTLTSGVPSRFSGSGSGTDFTLTISSLQPEDFATYYCASTYGSSGSSGYGAAFGGGTKVEIK	500 to 5000
hu.18B9.3i LC_S90A (antibody, name in Kabat numbering, V domains shown, Alanine scan variant of hu.18B9.3i; Kabat numbering) VH: EVQLVESGGGLVQPGGSLRLSCAASGFSFNSGYMSWVRQAPGKGLEWIASIYAGSSGKTYYADWAKGRFTISKTSSKTTVYLQMNSLRAEDTAVYYCARDSGGTYYTDYLYLWGQGTLVTVSS VL: DIQMTQSPSSLSASVGDRVTITCRASEGISSYLSWYQQKPGKAPKLLIYKASTLTSGVPSRFSGSGSGTDFTLTISSLQPEDFATYYCQATYGSSGSSGYGAAFGGGTKVEIK	10 to 500
hu.18B9.3i LC_S94A (antibody, name in Kabat numbering, V domains shown, Alanine scan variant of hu.18B9.3i; Kabat numbering) VH: EVQLVESGGGLVQPGGSLRLSCAASGFSFNSGYMSWVRQAPGKGLEWIASIYAGSSGKTYYADWAKGRFTISKTSSKTTVYLQMNSLRAEDTAVYYCARDSGGTYYTDYLYLWGQGTLVTVSS VL: DIQMTQSPSSLSASVGDRVTITCRASEGISSYLSWYQQKPGKAPKLLIYKASTLTSGVPSRFSGSGSGTDFTLTISSLQPEDFATYYCQSTYGASGSSGYGAAFGGGTKVEIK	10 to 500
hu.18B9.3i LC_S95A (antibody, name in Kabat numbering, V domains shown, Alanine scan variant of hu.18B9.3i; Kabat numbering) VH: EVQLVESGGGLVQPGGSLRLSCAASGFSFNSGYMSWVRQAPGKGLEWIASIYAGSSGKTYYADWAKGRFTISKTSSKTTVYLQMNSLRAEDTAVYYCARDSGGTYYTDYLYLWGQGTLVTVSS VL: DIQMTQSPSSLSASVGDRVTITCRASEGISSYLSWYQQKPGKAPKLLIYKASTLTSGVPSRFSGSGSGTDFTLTISSLQPEDFATYYCQSTYGSAGSSGYGAAFGGGTKVEIK	10 to 500
hu.18B9.3i LC_S95b_A (antibody, V domains shown, Alanine scan variant of hu.18B9.3i; Kabat numbering) VH: EVQLVESGGGLVQPGGSLRLSCAASGFSFNSGYMSWVRQAPGKGLEWIASIYAGSSGKTYYADWAKGRFTISKTSSKTTVYLQMNSLRAEDTAVYYCARDSGGTYYTDYLYLWGQGTLVTVSS VL: DIQMTQSPSSLSASVGDRVTITCRASEGISSYLSWYQQKPGKAPKLLIYKASTLTSGVPSRFSGSGSGTDFTLTISSLQPEDFATYYCQSTYGSSGASGYGAAFGGGTKVEIK	10 to 500
hu.18B9.3i LC_S95c_A (antibody, V domains shown, Alanine scan variant of hu.18B9.3i; Kabat numbering) VH: EVQLVESGGGLVQPGGSLRLSCAASGFSFNSGYMSWVRQAPGKGLEWIASIYAGSSGKTYYADWAKGRFTISKTSSKTTVYLQMNSLRAEDTAVYYCARDSGGTYYTDYLYLWGQGTLVTVSS VL: DIQMTQSPSSLSASVGDRVTITCRASEGISSYLSWYQQKPGKAPKLLIYKASTLTSGVPSRFSGSGSGTDFTLTISSLQPEDFATYYCQSTYGSSGSAGYGAAFGGGTKVEIK	10 to 500
hu.18B9.3i LC_T91A (antibody, name in Kabat numbering, V domains shown, Alanine scan variant of hu.18B9.3i; Kabat numbering) VH: EVQLVESGGGLVQPGGSLRLSCAASGFSFNSGYMSWVRQAPGKGLEWIASIYAGSSGKTYYADWAKGRFTISKTSSKTTVYLQMNSLRAEDTAVYYCARDSGGTYYTDYLYLWGQGTLVTVSS VL: DIQMTQSPSSLSASVGDRVTITCRASEGISSYLSWYQQKPGKAPKLLIYKASTLTSGVPSRFSGSGSGTDFTLTISSLQPEDFATYYCQSAYGSSGSSGYGAAFGGGTKVEIK	10 to 500
hu.18B9.3i LC_Y92A (antibody, name in Kabat numbering, V domains shown, Alanine scan variant of hu.18B9.3i; Kabat numbering) VH: EVQLVESGGGLVQPGGSLRLSCAASGFSFNSGYMSWVRQAPGKGLEWIASIYAGSSGKTYYADWAKGRFTISKTSSKTTVYLQMNSLRAEDTAVYYCARDSGGTYYTDYLYLWGQGTLVTVSS VL: DIQMTQSPSSLSASVGDRVTITCRASEGISSYLSWYQQKPGKAPKLLIYKASTLTSGVPSRFSGSGSGTDFTLTISSLQPEDFATYYCQSTAGSSGSSGYGAAFGGGTKVEIK	10 to 500
hu.18B9.3i LC_Y95e_A (antibody, V domains shown, Alanine scan variant of hu.18B9.3i; Kabat numbering) VH: EVQLVESGGGLVQPGGSLRLSCAASGFSFNSGYMSWVRQAPGKGLEWIASIYAGSSGKTYYADWAKGRFTISKTSSKTTVYLQMNSLRAEDTAVYYCARDSGGTYYTDYLYLWGQGTLVTVSS VL: DIQMTQSPSSLSASVGDRVTITCRASEGISSYLSWYQQKPGKAPKLLIYKASTLTSGVPSRFSGSGSGTDFTLTISSLQPEDFATYYCQSTYGSSGSSGAGAAFGGGTKVEIK	10 to 500

Source: US20240174750A1 (VIRTUOSO BINCO, published 2024)
